Laboratory results taken from patent US20190092852A1.

Experiments:
[1] = biological target: human ST2L on HEK-BLUE IL-33/IL-1beta cells (human) (UniProt Q01638)
[2] = biological target: human IL-33 N-His (human)
[3] = biological target: T1, human IL-33 (R&D Systems, #3625-IL-010/CF) (human) (UniProt O95760)
T1 sequence (looked up): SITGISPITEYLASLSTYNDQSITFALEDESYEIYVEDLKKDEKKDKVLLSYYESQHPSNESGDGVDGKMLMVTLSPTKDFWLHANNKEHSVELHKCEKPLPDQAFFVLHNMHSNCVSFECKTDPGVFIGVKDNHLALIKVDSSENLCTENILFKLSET

[4] = biological target: T1, human IL-33 (R&D Systems, #3625-IL-010/CF) (human); remark: listed apart in the source
[5] = biological target: cyno IL-33 (cell-based blocking assay of Example 2) (cynomolgus monkey)
Chain of cyno IL-33 (cell-based blocking assay of Example 2) (cynomolgus monkey) (chain, as listed by the source): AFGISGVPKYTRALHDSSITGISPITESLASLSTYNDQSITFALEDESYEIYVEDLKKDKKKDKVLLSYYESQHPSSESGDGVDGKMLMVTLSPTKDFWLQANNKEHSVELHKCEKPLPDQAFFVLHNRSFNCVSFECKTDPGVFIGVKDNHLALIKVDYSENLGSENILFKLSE

[6] = biological target: human IL-33 (cell-based blocking assay of Example 2) (human) (UniProt O95760)
[7] = biological target: T1, human IL-33 (R&D Systems, #3625-IL-010/CF) (human); remark: listed apart in the source
[8] = biological target: T1, human IL-33 (R&D Systems, #3625-IL-010/CF) (human); assay: cell-based or functional assay
[9] = biological target: cynomolgus monkey N-terminal 6-His-tagged and C-terminal Avi-tagged IL-33 (S112-T270) (cynomolgus monkey); assay: cell-based or functional assay
Chain of cynomolgus monkey N-terminal 6-His-tagged and C-terminal Avi-tagged IL-33 (S112-T270) (cynomolgus monkey) (chain, as listed by the source limits assumed): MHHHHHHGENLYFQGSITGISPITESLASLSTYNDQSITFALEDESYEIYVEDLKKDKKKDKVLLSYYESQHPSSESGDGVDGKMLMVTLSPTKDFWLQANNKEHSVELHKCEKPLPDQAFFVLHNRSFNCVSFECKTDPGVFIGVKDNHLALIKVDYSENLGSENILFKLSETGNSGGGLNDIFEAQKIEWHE

[10] = biological target: T1, human IL-33 (R&D Systems, #3625-IL-010/CF) (human); remark: listed apart in the source

Chain of human ST2L on HEK-BLUE IL-33/IL-1beta cells (human) (Q01638 19-556 limits assumed): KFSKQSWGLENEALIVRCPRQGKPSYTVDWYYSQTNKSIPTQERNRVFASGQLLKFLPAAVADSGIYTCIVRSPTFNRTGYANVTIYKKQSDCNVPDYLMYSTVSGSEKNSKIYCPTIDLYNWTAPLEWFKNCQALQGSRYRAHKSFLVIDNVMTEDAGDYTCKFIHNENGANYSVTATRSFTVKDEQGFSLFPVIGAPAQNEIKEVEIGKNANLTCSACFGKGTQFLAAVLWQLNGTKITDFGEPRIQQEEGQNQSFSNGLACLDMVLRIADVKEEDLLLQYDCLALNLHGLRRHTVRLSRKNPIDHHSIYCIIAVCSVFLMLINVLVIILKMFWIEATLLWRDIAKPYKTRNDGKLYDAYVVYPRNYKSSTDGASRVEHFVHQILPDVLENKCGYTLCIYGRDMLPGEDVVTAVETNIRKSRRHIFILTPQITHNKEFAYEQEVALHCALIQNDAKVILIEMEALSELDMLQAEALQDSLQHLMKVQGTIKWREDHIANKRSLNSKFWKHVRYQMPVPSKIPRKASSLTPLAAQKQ

Question: For human IL-33 N-His (ligand), which EC50 (SEAP reporter OD 620, HEK-BLUE IL-33/IL-1beta cells) [1] is on record?
Answer: 0.006 nM

Question: With control IgG4 antibody as the substance, how does the IC50 as printed in the table (fit value of a flat curve: Control IgG4 stays at about 115-125 % IL-33 activity up to 1e4 pM, no inhibition); SEAP reporter, HEK-BLUE IL-33 cells, 15 pM human IL-33 N-His [2] read?
Answer: 7.63e-06 pM

Question: And the IC90 as printed in the table (fit value of a flat curve: Control IgG4 stays at about 115-125 % IL-33 activity up to 1e4 pM, no inhibition); SEAP reporter, HEK-BLUE IL-33 cells, 15 pM human IL-33 N-His [2]?
Answer: 1.08e-06 pM

Question: And the Ph-p38 MFI at 2 nM Ab (500 pM human IL-33, primary basophils) [3]?
Answer: 110 MFI

Question: What about the Ph-p38 MFI at 0.4 nM Ab (500 pM human IL-33, primary basophils) [4] of the same substance?
Answer: 152 MFI

Question: What does the source list for “sST2-LZ (sST2 (M1-F328) C-terminal leucine zipper (LZ)-Flag-His) (receptor)”?
Answer: IC50 (HEK-BLUE SEAP reporter, IL-33 blocking) [5]: 0.0018 nM; IC90 (HEK-BLUE SEAP reporter, IL-33 blocking) [5]: 0.0036 nM; IC50 (HEK-BLUE SEAP reporter, IL-33 blocking) [6]: 0.0122 nM; IC90 (HEK-BLUE SEAP reporter, IL-33 blocking) [6]: 0.0467 nM; IC50; SEAP reporter, HEK-BLUE IL-33 cells, 15 pM human IL-33 N-His, 20 h [2]: 62.1 pM; IC90; SEAP reporter, HEK-BLUE IL-33 cells, 15 pM human IL-33 N-His, 20 h [2]: 257 pM; Ph-p38 MFI at 2 nM sST2 (500 pM human IL-33, primary basophils) [3]: 40 MFI; IC50, IL-33-induced phospho-p38 in primary human basophils, 500 pM hIL-33 [7]: 7.9e-13 M; HEK-BLUE SEAP reporter IC50 [8]: 0.027 nM; IFN-γ secretion from primary NK cells, IC50 [8]: 0.15 nM; HEK-BLUE SEAP reporter IC50 [9]: 0.03 nM; IC50 (read off the curve) [10]: 0.0008 nM; Ph-p38 MFI at 0.4 nM sST2 (500 pM human IL-33, primary basophils) [4]: 113 MFI
